In patent publication US20110159569A1 (AJOU UNIVERSITY INDUSTRYACADEMIC COOPERATION FOUND, published 2011):

B1: 3D8 VL protein (other)
VL: DLVMSQSPSSLAVSAGEKVTMSCKSSQSLFNSRTRKNYLAWYQQKPGQSPKLLIYWASTRESGVPDRFTGSGSGTDFTLTISSVQAEDLAVYYCKQSYYHMYTFGSGTKLEIK
notes: Isolated light chain variable domain of the anti-nucleic acid antibody 3D8, purified as a single domain and immobilized on a CM5 chip for SPR; also called VL chain; VL domain
B2: 3D8 VH protein (other)
VH: AREVQLQQSGPELVKPGASVKMSCKASGYTFTSYVMHWVKQKPGQGLEWIGYINPYNDGTKYNEKFKGKATLTSDKSSSTAYMELSSLTSEDSAVYYCARGAYKRGYAMDYWGQGTSVTVSS
notes: Isolated heavy chain variable domain of the anti-nucleic acid antibody 3D8, purified as a single domain; also called VH chain; VH domain

Biological target: the molecule itself
Assay: size exclusion chromatography (HPLC, TSK G3000SW xL), self-association
Method: 0.02 ml of 5 to 20 μM protein was injected into a TSK G3000SW xL column (TosoHaas, Japan), and a phosphate buffered solution (50 mM sodium phosphate/150 mM NaCl, pH7.4) flowed at a rate of 0.7 ml/min. In this case, the chromatogram was obtained by measuring absorbance values at 280 nm.

Protein	binding result
B1	no binding (tested: 5 to 20 µM)
B2	no binding (tested: 5 to 20 µM)
